Laboratory results as given in US20240294593A1 (Genentech, published 2024).
Changes are numbered by the printed parent chain. In names and notes the source's numbering stands.

B1: H1.1_L1 (antibody, human IgG1, kappa, V domains shown)
VH: EVQLVESGGGLVQPGGSLRLSCAASGFTFTSFGMHWVRQAPGKGLEWVSYISSGSSIIYYADSVKGRFTISRDNAKNSLYLQMNSLRAEDTAVYYCARGGRLVWSPDYWGQGTLVTVSS
VL: DIVMTQSPDSLAVSLGERATINCKSSQSLLNSGNQKNYLTWYQQKPGQPPKLLIYWASTRESGVPDRFTGSGSGTDFTLTISSLQAEDVAVYYCQNDYSYPFTFGSGTKLEIKR
notes: also called VH-S30T; Kabat 30T; copies: 2 + 2
B2: H1.2_L1 (antibody, human IgG1, kappa, V domains shown)
VH: B1 VH with T30A
VL: B1 VL
notes: also called VH-S30A; Kabat 30A; copies: 2 + 2
B3: H1.3_L1 (antibody, human IgG1, kappa, V domains shown)
VH: B1 VH with T30Q
VL: B1 VL
notes: also called VH-S30Q; Kabat 30Q; copies: 2 + 2
B4: H1.63_L1 (antibody, human IgG1, kappa, V domains shown)
VH: B1 VH with T30S, S55A
VL: B1 VL
notes: also called VH-S59A; Kabat 54; copies: 2 + 2
B5: H1.48_L1 (antibody, human IgG1, kappa, V domains shown)
VH: B1 VH with T30S, S53G
VL: B1 VL
notes: also called VH-S55G; Kabat 52aG
B6: H1.42_L1 (antibody, human IgG1, kappa, V domains shown)
VH: B1 VH with T30S, S52K
VL: B1 VL
notes: also called VH-S54K; Kabat 52K
B7: H1.54_L1 (antibody, human IgG1, kappa, V domains shown)
VH: B1 VH with T30S, G54A
VL: B1 VL
notes: also called VH-G56A; Kabat 53A; copies: 2 + 2
B8: H1.47_L1 (antibody, human IgG1, kappa, V domains shown)
VH: B1 VH with T30S, S53Q
VL: B1 VL
notes: also called VH-S55Q; Kabat 52aQ
B9: H1.46_L1 (antibody, human IgG1, kappa, V domains shown)
VH: B1 VH with T30S, S53A
VL: B1 VL
notes: also called VH-S55A; Kabat 52aA
B10: H1.72_L1 (antibody, human IgG1, kappa, V domains shown)
VH: B1 VH with T30S, S56A
VL: B1 VL
notes: also called VH-S60A; Kabat 55; copies: 2 + 2
B11: H1.49_L1 (antibody, human IgG1, kappa, V domains shown)
VH: B1 VH with T30S, S53V
VL: B1 VL
notes: also called VH-S55V; Kabat 52aV; copies: 2 + 2
B12: H1.59_L1 (antibody, human IgG1, kappa, V domains shown)
VH: B1 VH with T30S, G54K
VL: B1 VL
notes: also called VH-G56K; Kabat 53; copies: 2 + 2
B13: H1.45_L1 (antibody, human IgG1, kappa, V domains shown)
VH: B1 VH with T30S, S53T
VL: B1 VL
notes: also called VH-S55T; Kabat 52aT
B14: H1.44_L1 (antibody, human IgG1, kappa, V domains shown)
VH: B1 VH with T30S, S52E
VL: B1 VL
notes: also called VH-S54E; Kabat 52E
B15: H1.57_L1 (antibody, human IgG1, kappa, V domains shown)
VH: B1 VH with T30S, G54Q
VL: B1 VL
notes: also called VH-G56Q; Kabat 53Q; copies: 2 + 2
B16: H1.55_L1 (antibody, human IgG1, kappa, V domains shown)
VH: B1 VH with T30S, G54S
VL: B1 VL
notes: also called VH-G56S; Kabat 53S; copies: 2 + 2
B17: H1.58_L1 (antibody, human IgG1, kappa, V domains shown)
VH: B1 VH with T30S, G54H
VL: B1 VL
notes: also called VH-G56H; Kabat 53; copies: 2 + 2
B18: H1.40_L1 (antibody, human IgG1, kappa, V domains shown)
VH: B1 VH with T30S, S52V
VL: B1 VL
notes: also called VH-S54V; Kabat 52V; copies: 2 + 2
B19: H1.64_L1 (antibody, human IgG1, kappa, V domains shown)
VH: B1 VH with T30S, S55Q
VL: B1 VL
notes: also called VH-S59Q; Kabat 54; copies: 2 + 2
B20: H1.66_L1 (antibody, human IgG1, kappa, V domains shown)
VH: B1 VH with T30S, S55V
VL: B1 VL
notes: also called VH-S59V; Kabat 54; copies: 2 + 2
B21: H1.65_L1 (antibody, human IgG1, kappa, V domains shown)
VH: B1 VH with T30S, S55G
VL: B1 VL
notes: also called VH-S59G; Kabat 54; copies: 2 + 2
B22: H1.53_L1 (antibody, human IgG1, kappa, V domains shown)
VH: B1 VH with T30S, S53E
VL: B1 VL
notes: also called VH-S55E; Kabat 52aE
B23: H1.52_L1 (antibody, human IgG1, kappa, V domains shown)
VH: B1 VH with T30S, S53Y
VL: B1 VL
notes: also called VH-S55Y; Kabat 52aY
B24: H1.50_L1 (antibody, human IgG1, kappa, V domains shown)
VH: B1 VH with T30S, S53H
VL: B1 VL
notes: also called VH-S55H; Kabat 52aH; copies: 2 + 2
B25: H1.62_L1 (antibody, human IgG1, kappa, V domains shown)
VH: B1 VH with T30S, S55T
VL: B1 VL
notes: also called VH-S59T; Kabat 54; copies: 2 + 2
B26: H1.69_L1 (antibody, human IgG1, kappa, V domains shown)
VH: B1 VH with T30S, S55Y
VL: B1 VL
notes: also called VH-S59Y; Kabat 54; copies: 2 + 2
B27: H1.38_L1 (antibody, human IgG1, kappa, V domains shown)
VH: B1 VH with T30S, S52Q
VL: B1 VL
notes: also called VH-S54Q; Kabat 52Q; copies: 2 + 2
B28: H1.43_L1 (antibody, human IgG1, kappa, V domains shown)
VH: B1 VH with T30S, S52Y
VL: B1 VL
notes: also called VH-S54Y; Kabat 52Y
B29: H1.56_L1 (antibody, human IgG1, kappa, V domains shown)
VH: B1 VH with T30S, G54T
VL: B1 VL
notes: also called VH-G56T; Kabat 53T; copies: 2 + 2
B30: H1.71_L1 (antibody, human IgG1, kappa, V domains shown)
VH: B1 VH with T30S, S56T
VL: B1 VL
notes: also called VH-S60T; Kabat 55; copies: 2 + 2
B31: H1.67_L1 (antibody, human IgG1, kappa, V domains shown)
VH: B1 VH with T30S, S55H
VL: B1 VL
notes: also called VH-S59H; Kabat 54; copies: 2 + 2
B32: H1.51_L1 (antibody, human IgG1, kappa, V domains shown)
VH: B1 VH with T30S, S53K
VL: B1 VL
notes: also called VH-S55K; Kabat 52aK
B33: H1.39_L1 (antibody, human IgG1, kappa, V domains shown)
VH: B1 VH with T30S, S52G
VL: B1 VL
notes: also called VH-S54G; Kabat 52G; copies: 2 + 2
B34: H1.70_L1 (antibody, human IgG1, kappa, V domains shown)
VH: B1 VH with T30S, S55E
VL: B1 VL
notes: also called VH-S59E; Kabat 54; copies: 2 + 2
B35: H1.61_L1 (antibody, human IgG1, kappa, V domains shown)
VH: B1 VH with T30S, G54Y
VL: B1 VL
notes: also called VH-G56Y; Kabat 53; copies: 2 + 2
B36: H1.41_L1 (antibody, human IgG1, kappa, V domains shown)
VH: B1 VH with T30S, S52H
VL: B1 VL
notes: also called VH-S54H; Kabat 52H; copies: 2 + 2
B37: H1.68_L1 (antibody, human IgG1, kappa, V domains shown)
VH: B1 VH with T30S, S55K
VL: B1 VL
notes: also called VH-S59K; Kabat 54; copies: 2 + 2
B38: H1.37_L1 (antibody, human IgG1, kappa, V domains shown)
VH: B1 VH with T30S, S52A
VL: B1 VL
notes: also called VH-S54A; Kabat 52A; copies: 2 + 2
B39: H1.60_L1 (antibody, human IgG1, kappa, V domains shown)
VH: B1 VH with T30S, G54L
VL: B1 VL
notes: also called VH-G56L; Kabat 53; copies: 2 + 2

The binders below were run against T1, human PD-1-His (human, UniProt Q15116 25-167, limits assumed) (assay: Octet).
T1 construct: Antigen of the Octet assays; not shown: His tag
T1 sequence (Q15116 25-167 limits assumed): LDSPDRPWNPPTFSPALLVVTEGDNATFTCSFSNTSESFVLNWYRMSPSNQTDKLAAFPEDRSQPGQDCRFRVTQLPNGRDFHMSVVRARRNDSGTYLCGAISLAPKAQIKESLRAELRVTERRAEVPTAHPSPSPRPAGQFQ
Work on B1 yielded a Kd of 32.1 nM, a koff of 0.00407 s⁻¹ and a kon of 127000 M⁻¹ s⁻¹. B2 was tested, and the Kd was 35.6 nM, the koff was 0.00432 s⁻¹ and the kon was 121000 M⁻¹ s⁻¹. In the case of B3, the Kd is reported as 40 nM, the koff is reported as 0.00472 s⁻¹ and the kon is reported as 118000 M⁻¹ s⁻¹.

Biological target: T1, human PD-1-His
Assay: Octet
Remark: another data set of the same source
With B4 the Kd was 42.4 nM, the koff was 0.00619 s⁻¹ and the kon was 146000 M⁻¹ s⁻¹. For B5, the Kd was 20.1 nM, the koff was 0.00293 s⁻¹ and the kon was 146000 M⁻¹ s⁻¹. Work on B6 yielded a Kd of 500 nM, a koff of 0.0265 s⁻¹ and a kon of 53000 M⁻¹ s⁻¹. B7 gave a Kd of 34.5 nM, a koff of 0.00432 s⁻¹ and a kon of 125000 M⁻¹ s⁻¹. B8 was tested, and the Kd was 117 nM, the koff was 0.0159 s⁻¹ and the kon was 136000 M⁻¹ s⁻¹. For B9, the Kd was 41.9 nM, the koff was 0.00529 s⁻¹ and the kon was 126000 M⁻¹ s⁻¹. In the case of B10, the Kd is reported as 62.5 nM, the koff is reported as 0.00701 s⁻¹ and the kon is reported as 112000 M⁻¹ s⁻¹. With B11 the Kd was 92.8 nM, the koff was 0.0136 s⁻¹ and the kon was 147000 M⁻¹ s⁻¹. Work on B12 yielded a Kd of 37.6 nM, a koff of 0.00494 s⁻¹ and a kon of 131000 M⁻¹ s⁻¹. B13 showed a Kd of 74.5 nM, a koff of 0.0091 s⁻¹ and a kon of 122000 M⁻¹ s⁻¹. B14 showed a Kd of 183 nM, a koff of 0.0225 s⁻¹ and a kon of 123000 M⁻¹ s⁻¹. With B15 the Kd was 30.9 nM, the koff was 0.00464 s⁻¹ and the kon was 150000 M⁻¹ s⁻¹. B16 was tested, and the Kd was 33.9 nM, the koff was 0.00457 s⁻¹ and the kon was 135000 M⁻¹ s⁻¹. B17 showed a Kd of 43.9 nM, a koff of 0.00544 s⁻¹ and a kon of 124000 M⁻¹ s⁻¹. B18 was tested, and the Kd was 231 nM, the koff was 0.0293 s⁻¹ and the kon was 127000 M⁻¹ s⁻¹. In the case of B19, the Kd is reported as 59.1 nM, the koff is reported as 0.00783 s⁻¹ and the kon is reported as 132000 M⁻¹ s⁻¹. For B20, the Kd was 112 nM, the koff was 0.0129 s⁻¹ and the kon was 115000 M⁻¹ s⁻¹. In the case of B21, the Kd is reported as 61 nM, the koff is reported as 0.00827 s⁻¹ and the kon is reported as 136000 M⁻¹ s⁻¹. With B22 the Kd was 96 nM, the koff was 0.0283 s⁻¹ and the kon was 295000 M⁻¹ s⁻¹. B23 was tested, and the Kd was 33.1 nM, the koff was 0.00423 s⁻¹ and the kon was 128000 M⁻¹ s⁻¹. Binder B24 has a Kd of 24.2 nM, a koff of 0.00287 s⁻¹ and a kon of 119000 M⁻¹ s⁻¹. B25 gave a Kd of 59.9 nM, a koff of 0.00774 s⁻¹ and a kon of 129000 M⁻¹ s⁻¹. B26 was tested, and the Kd was 59.6 nM, the koff was 0.00818 s⁻¹ and the kon was 137000 M⁻¹ s⁻¹. B27 was tested, and the Kd was 57.5 nM, the koff was 0.00776 s⁻¹ and the kon was 135000 M⁻¹ s⁻¹. Binder B28 has a Kd of 665 nM, a koff of 0.148 s⁻¹ and a kon of 223000 M⁻¹ s⁻¹. In the case of B29, the Kd is reported as 31.5 nM, the koff is reported as 0.00407 s⁻¹ and the kon is reported as 129000 M⁻¹ s⁻¹. Binder B30 has a Kd of 45.8 nM, a koff of 0.00505 s⁻¹ and a kon of 110000 M⁻¹ s⁻¹. For B31, the Kd was 49.2 nM, the koff was 0.00692 s⁻¹ and the kon was 141000 M⁻¹ s⁻¹. In the case of B32, the Kd is reported as 54.9 nM, the koff is reported as 0.00567 s⁻¹ and the kon is reported as 103000 M⁻¹ s⁻¹. With B33 the Kd was 115 nM, the koff was 0.0178 s⁻¹ and the kon was 154000 M⁻¹ s⁻¹. Work on B34 yielded a Kd of 48 nM, a koff of 0.00674 s⁻¹ and a kon of 140000 M⁻¹ s⁻¹. In the case of B35, the Kd is reported as 41.5 nM, the koff is reported as 0.00574 s⁻¹ and the kon is reported as 138000 M⁻¹ s⁻¹. With B36 the Kd was 74.6 nM, the koff was 0.0104 s⁻¹ and the kon was 140000 M⁻¹ s⁻¹. Work on B37 yielded a Kd of 74 nM, a koff of 0.00808 s⁻¹ and a kon of 109000 M⁻¹ s⁻¹. B38 showed a Kd of 56 nM, a koff of 0.00763 s⁻¹ and a kon of 136000 M⁻¹ s⁻¹. Work on B39 yielded a Kd of 35.9 nM, a koff of 0.00458 s⁻¹ and a kon of 128000 M⁻¹ s⁻¹.
